Data taken from the supplement of paper PMC11136658.

System: peptide library, one residue held at a place counted from the Y acceptor
Assay: relative phosphorylation of the sub-library (ratio to the mean residue at this position); higher = residue favoured
Outline: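 Peptide library mixtures, biotinylated and centred on Tyr, each fixed one residue at one position from −5 to +5. Purified recombinant kinases were incubated with them for 90 min in 384-well plates alongside 50 μM ATP and γ-32P-ATP, and the captured, rinsed peptides on streptavidin membranes were measured by phosphorimaging and ImageQuant. Normalization divided each position's intensities by the sum of its 18 randomized residues (16 for the Ser/Thr-free library) and multiplied by that number, so that values give phosphorylation relative to the mean randomized residue.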

IRR, construct: aa945-end, human, sequence (P14616 945-1297, looked up): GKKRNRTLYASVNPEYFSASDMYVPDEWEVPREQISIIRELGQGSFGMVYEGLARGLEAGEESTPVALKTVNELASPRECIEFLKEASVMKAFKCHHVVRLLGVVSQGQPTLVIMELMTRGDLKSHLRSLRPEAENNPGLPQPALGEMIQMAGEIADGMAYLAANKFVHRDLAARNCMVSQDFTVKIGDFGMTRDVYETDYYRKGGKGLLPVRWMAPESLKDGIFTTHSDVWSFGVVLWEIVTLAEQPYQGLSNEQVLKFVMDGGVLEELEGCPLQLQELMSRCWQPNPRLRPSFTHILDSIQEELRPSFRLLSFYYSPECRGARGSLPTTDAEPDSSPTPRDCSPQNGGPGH

IRR, construct: aa945-end, human (from UniProt P14616)
relative phosphorylation (A fixed, at +1): 1.2 | relative phosphorylation (A fixed, at +2): 0.697 | relative phosphorylation (A fixed, at +3): 0.453 | relative phosphorylation (A fixed, at +4): 0.79 | relative phosphorylation (A fixed, at +5): 0.702 | relative phosphorylation (A fixed, at -1): 0.948 | relative phosphorylation (A fixed, at -2): 1.06 | relative phosphorylation (A fixed, at -3): 0.957 | relative phosphorylation (A fixed, at -4): 0.997 | relative phosphorylation (A fixed, at -5): 1.03 | relative phosphorylation (D fixed, at +1): 0.718 | relative phosphorylation (D fixed, at +2): 0.923 | relative phosphorylation (D fixed, at +3): 0.342 | relative phosphorylation (D fixed, at +4): 1.35 | relative phosphorylation (D fixed, at +5): 0.583 | relative phosphorylation (D fixed, at -1): 2.42 | relative phosphorylation (D fixed, at -2): 1.56 | relative phosphorylation (D fixed, at -3): 1.39 | relative phosphorylation (D fixed, at -4): 1.41 | relative phosphorylation (D fixed, at -5): 1.13 | relative phosphorylation (E fixed, at +1): 1.07 | relative phosphorylation (E fixed, at +2): 1.49 | relative phosphorylation (E fixed, at +3): 0.322 | relative phosphorylation (E fixed, at +4): 1.26 | relative phosphorylation (E fixed, at +5): 0.575 | relative phosphorylation (E fixed, at -1): 1.66 | relative phosphorylation (E fixed, at -2): 1.53 | relative phosphorylation (E fixed, at -3): 1.53 | relative phosphorylation (E fixed, at -4): 1.28 | relative phosphorylation (E fixed, at -5): 1.03 | relative phosphorylation (F fixed, at +1): 1.4 | relative phosphorylation (F fixed, at +2): 1.19 | relative phosphorylation (F fixed, at +3): 1.51 | relative phosphorylation (F fixed, at +4): 1.06 | relative phosphorylation (F fixed, at +5): 2.09 | relative phosphorylation (F fixed, at -1): 0.666 | relative phosphorylation (F fixed, at -2): 0.685 | relative phosphorylation (F fixed, at -3): 0.903 | relative phosphorylation (F fixed, at -4): 0.854 | relative phosphorylation (F fixed, at -5): 0.904 | relative phosphorylation (G fixed, at +1): 0.637 | relative phosphorylation (G fixed, at +2): 0.368 | relative phosphorylation (G fixed, at +3): 0.424 | relative phosphorylation (G fixed, at +4): 0.931 | relative phosphorylation (G fixed, at +5): 0.838 | relative phosphorylation (G fixed, at -1): 0.608 | relative phosphorylation (G fixed, at -2): 1.14 | relative phosphorylation (G fixed, at -3): 0.972 | relative phosphorylation (G fixed, at -4): 1.08 | relative phosphorylation (G fixed, at -5): 0.998 | relative phosphorylation (H fixed, at +1): 1.85 | relative phosphorylation (H fixed, at +2): 1.07 | relative phosphorylation (H fixed, at +3): 1.37 | relative phosphorylation (H fixed, at +4): 1.24 | relative phosphorylation (H fixed, at +5): 1.21 | relative phosphorylation (H fixed, at -1): 1.08 | relative phosphorylation (H fixed, at -2): 0.901 | relative phosphorylation (H fixed, at -3): 1.13 | relative phosphorylation (H fixed, at -4): 1.07 | relative phosphorylation (H fixed, at -5): 1.09 | relative phosphorylation (I fixed, at +1): 0.849 | relative phosphorylation (I fixed, at +2): 0.881 | relative phosphorylation (I fixed, at +3): 1.73 | relative phosphorylation (I fixed, at +4): 0.828 | relative phosphorylation (I fixed, at +5): 1.03 | relative phosphorylation (I fixed, at -1): 0.842 | relative phosphorylation (I fixed, at -2): 0.63 | relative phosphorylation (I fixed, at -3): 0.618 | relative phosphorylation (I fixed, at -4): 0.772 | relative phosphorylation (I fixed, at -5): 0.87 | relative phosphorylation (K fixed, at +1): 0.399 | relative phosphorylation (K fixed, at +2): 0.686 | relative phosphorylation (K fixed, at +3): 0.433 | relative phosphorylation (K fixed, at +4): 0.906 | relative phosphorylation (K fixed, at +5): 0.693 | relative phosphorylation (K fixed, at -1): 0.35 | relative phosphorylation (K fixed, at -2): 0.977 | relative phosphorylation (K fixed, at -3): 0.864 | relative phosphorylation (K fixed, at -4): 1.05 | relative phosphorylation (K fixed, at -5): 1.28 | relative phosphorylation (L fixed, at +1): 1.19 | relative phosphorylation (L fixed, at +2): 1.32 | relative phosphorylation (L fixed, at +3): 1.6 | relative phosphorylation (L fixed, at +4): 0.807 | relative phosphorylation (L fixed, at +5): 0.985 | relative phosphorylation (L fixed, at -1): 0.916 | relative phosphorylation (L fixed, at -2): 0.705 | relative phosphorylation (L fixed, at -3): 0.717 | relative phosphorylation (L fixed, at -4): 0.742 | relative phosphorylation (L fixed, at -5): 0.825 | relative phosphorylation (M fixed, at +1): 2.18 | relative phosphorylation (M fixed, at +2): 1.44 | relative phosphorylation (M fixed, at +3): 2.06 | relative phosphorylation (M fixed, at +4): 0.975 | relative phosphorylation (M fixed, at +5): 1.06 | relative phosphorylation (M fixed, at -1): 0.75 | relative phosphorylation (M fixed, at -2): 0.803 | relative phosphorylation (M fixed, at -3): 0.779 | relative phosphorylation (M fixed, at -4): 0.853 | relative phosphorylation (M fixed, at -5): 0.84 | relative phosphorylation (N fixed, at +1): 0.618 | relative phosphorylation (N fixed, at +2): 0.911 | relative phosphorylation (N fixed, at +3): 0.484 | relative phosphorylation (N fixed, at +4): 1.14 | relative phosphorylation (N fixed, at +5): 0.844 | relative phosphorylation (N fixed, at -1): 2.07 | relative phosphorylation (N fixed, at -2): 1.37 | relative phosphorylation (N fixed, at -3): 1.45 | relative phosphorylation (N fixed, at -4): 1.14 | relative phosphorylation (N fixed, at -5): 1.13 | relative phosphorylation (P fixed, at +1): 0.423 | relative phosphorylation (P fixed, at +2): 0.796 | relative phosphorylation (P fixed, at +3): 0.374 | relative phosphorylation (P fixed, at +4): 0.892 | relative phosphorylation (P fixed, at +5): 1.37 | relative phosphorylation (P fixed, at -1): 1.07 | relative phosphorylation (P fixed, at -2): 1.24 | relative phosphorylation (P fixed, at -3): 0.834 | relative phosphorylation (P fixed, at -4): 0.957 | relative phosphorylation (P fixed, at -5): 0.978 | relative phosphorylation (Q fixed, at +1): 0.998 | relative phosphorylation (Q fixed, at +2): 1.02 | relative phosphorylation (Q fixed, at +3): 0.546 | relative phosphorylation (Q fixed, at +4): 1.04 | relative phosphorylation (Q fixed, at +5): 0.867 | relative phosphorylation (Q fixed, at -1): 0.911 | relative phosphorylation (Q fixed, at -2): 1.18 | relative phosphorylation (Q fixed, at -3): 1.24 | relative phosphorylation (Q fixed, at -4): 1.19 | relative phosphorylation (Q fixed, at -5): 1.12 | relative phosphorylation (R fixed, at +1): 0.353 | relative phosphorylation (R fixed, at +2): 0.796 | relative phosphorylation (R fixed, at +3): 0.665 | relative phosphorylation (R fixed, at +4): 0.918 | relative phosphorylation (R fixed, at +5): 1.06 | relative phosphorylation (R fixed, at -1): 0.386 | relative phosphorylation (R fixed, at -2): 0.992 | relative phosphorylation (R fixed, at -3): 1.16 | relative phosphorylation (R fixed, at -4): 1.05 | relative phosphorylation (R fixed, at -5): 1.19 | relative phosphorylation (S fixed, at +1): 0.835 | relative phosphorylation (S fixed, at +2): 0.771 | relative phosphorylation (S fixed, at +3): 0.509 | relative phosphorylation (S fixed, at +4): 0.977 | relative phosphorylation (S fixed, at +5): 0.705 | relative phosphorylation (S fixed, at -1): 0.856 | relative phosphorylation (S fixed, at -2): 1.06 | relative phosphorylation (S fixed, at -3): 1.05 | relative phosphorylation (S fixed, at -4): 0.847 | relative phosphorylation (S fixed, at -5): 0.88 | relative phosphorylation (T fixed, at +1): 0.867 | relative phosphorylation (T fixed, at +2): 0.801 | relative phosphorylation (T fixed, at +3): 0.741 | relative phosphorylation (T fixed, at +4): 1.07 | relative phosphorylation (T fixed, at +5): 0.781 | relative phosphorylation (T fixed, at -1): 0.945 | relative phosphorylation (T fixed, at -2): 1.05 | relative phosphorylation (T fixed, at -3): 0.996 | relative phosphorylation (T fixed, at -4): 0.876 | relative phosphorylation (T fixed, at -5): 0.803 | relative phosphorylation (V fixed, at +1): 0.906 | relative phosphorylation (V fixed, at +2): 0.945 | relative phosphorylation (V fixed, at +3): 1.43 | relative phosphorylation (V fixed, at +4): 0.85 | relative phosphorylation (V fixed, at +5): 0.723 | relative phosphorylation (V fixed, at -1): 0.757 | relative phosphorylation (V fixed, at -2): 0.651 | relative phosphorylation (V fixed, at -3): 0.647 | relative phosphorylation (V fixed, at -4): 0.776 | relative phosphorylation (V fixed, at -5): 0.806 | relative phosphorylation (W fixed, at +1): 1.21 | relative phosphorylation (W fixed, at +2): 1.47 | relative phosphorylation (W fixed, at +3): 2.26 | relative phosphorylation (W fixed, at +4): 1.01 | relative phosphorylation (W fixed, at +5): 1.35 | relative phosphorylation (W fixed, at -1): 0.576 | relative phosphorylation (W fixed, at -2): 0.576 | relative phosphorylation (W fixed, at -3): 0.797 | relative phosphorylation (W fixed, at -4): 0.781 | relative phosphorylation (W fixed, at -5): 0.766 | relative phosphorylation (pThr fixed, at +1): 1.57 | relative phosphorylation (pThr fixed, at +2): 1.06 | relative phosphorylation (pThr fixed, at +3): 0.323 | relative phosphorylation (pThr fixed, at +4): 0.922 | relative phosphorylation (pThr fixed, at +5): 0.584 | relative phosphorylation (pThr fixed, at -1): 1.66 | relative phosphorylation (pThr fixed, at -2): 1.23 | relative phosphorylation (pThr fixed, at -3): 1.27 | relative phosphorylation (pThr fixed, at -4): 1.2 | relative phosphorylation (pThr fixed, at -5): 1.07 | relative phosphorylation (pTyr fixed, at +1): 1.06 | relative phosphorylation (pTyr fixed, at +2): 1.64 | relative phosphorylation (pTyr fixed, at +3): 0.393 | relative phosphorylation (pTyr fixed, at +4): 1.12 | relative phosphorylation (pTyr fixed, at +5): 0.513 | relative phosphorylation (pTyr fixed, at -1): 2.83 | relative phosphorylation (pTyr fixed, at -2): 1.35 | relative phosphorylation (pTyr fixed, at -3): 1.26 | relative phosphorylation (pTyr fixed, at -4): 0.928 | relative phosphorylation (pTyr fixed, at -5): 1.02
